Results as given in PMC4859805, “Molecular mechanism of activation-triggered subunit exchange in Ca^2+/calmodulin-dependent protein kinase II” (eLife, 2016).
Where “and” joins values, the source holds several entries; their conditions need not be identical. Equal values may be shown once. Square brackets hold non-standard residues; d marks the D form. Ends that are not written are not given here. pT = C[C@@H](OP(=O)(O)O)[C@H](N)C(=O)O

B3: human CaMKII-α hub domain (domain or fragment, UniProt Q9UQM7 345-475, looked up)
chain: VRKQEIIKVTEQLIEAISNGDFESYTKMCDPGMTAFEPEALGNLVEGLDFHRFYFENLWSRNSKPVHTTILNPHIHLMGDESACIAYIRITQYLDAGGIPRTAQSEETRVWHRRDGKWQIVHFHRSGAPSV
notes: Ca2+/calmodulin-dependent protein kinase II alpha, human, hub domain; residues 345-475 are stated for the crystallization construct; The limits are stated only for the crystallization construct; also called the hub; isolated hub; source: E. coli BL21, purified (Ni-NTA, Q-FF, Superose 6); not shown: His6, N-terminal, cleaved; copies: 12 or 14

How the values were obtained:
[1] = molecular target: T1, human CaMKII-α hub (Homo sapiens, UniProt Q9UQM7); test: Fluorescence polarization competition assay with unlabeled peptides; format: binding
T1 construct: human CaMKII-α hub consisted of residues 345–475 (UNIPROT id: Q9UQM7); 6-histidine tag with PreScission protease site (N, cleaved yes); made in house; host or cells: E. coli BL21
T1 sequence (Q9UQM7 345-475): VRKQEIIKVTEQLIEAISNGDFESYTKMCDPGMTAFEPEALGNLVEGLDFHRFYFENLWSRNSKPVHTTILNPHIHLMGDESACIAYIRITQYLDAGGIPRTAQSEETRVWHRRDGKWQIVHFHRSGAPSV
Experimental: For the competition experiments, 2 nM of various labeled peptides were bound to 30 μM of the hub, resulting in high fluorescence polarization. Upon titration with the corresponding unlabeled versions of the peptides, the labeled peptides were competed off, and the fluorescence polarization decreased to the baseline value (Figure 3C–E). The value of the inhibition constant, IC50, is ~100 μM for the unlabeled peptides, whether phosphorylated or not. […]
(§1) The fluorescence polarization binding experiments were initiated by adding 15 μL of 2 nM BODIPY labeled peptides (buffer: 25 mM Tris at pH 8.0) to 15 μL of different concentrations of the human CaMKII-α hub domain (ranging from 0–1000 μM in 25 mM Tris at pH 8.0, 150 mM KCl, 10% glycerol and 0.02% Tween). […] The fluorescence polarization was read from 20 μL of these reaction mixtures in opaque black 96-well plates using a Synergy H4 hybrid microplate reader with a 485/20 nm excitation filter, and a 528/20 nm emission filter. Error bars are calculated from the standard error of mean between replicates of experiments. […]
where, A is the observed fluorescence polarization (FP) value, Af is the FP value for free labeled ligand, A0 is the FP value in the absence of unlabeled ligand, KD is the dissociation constant, [P]tot is the total protein concentration, and [L]tot is the total concentration of the unlabeled ligand. […]

[2] = molecular target: N. vectensis CaMKII-A hub domain (Nematostella vectensis); test: crystal structure; N. vectensis CaMKII-A hub; 0.2 M potassium thiocyanate, 20% w/v PEG 3350, pH 7.0
[3] = molecular target: N. vectensis CaMKII-B hub domain (Nematostella vectensis); test: crystal structure; N. vectensis CaMKII-B hub; 2.5 M sodium chloride, 0.1 M acetate pH 4.2, 0.25 M lithium sulphate
[4] = molecular target: T1, human CaMKII-α hub; test: Fluorescence polarization, direct titration of hub to BODIPY-labeled peptide; details: 2 nM Bodipy-FL-labeled peptide, hub 0-1000 μM, 25 mM Tris pH 8.0; non-saturable binding at high hub concentrations, value not relied on; read-out: KD derived from direct titration of the hub to the labeled peptide
Excerpt: To analyze the mechanism of subunit exchange, we focused initially on potential interactions between the CaM-binding element and the hub. We had shown previously that mutation of the CaM-binding element blocks subunit exchange, and that phosphorylation of Thr 305 and Thr 306 in the CaM-binding element potentiates exchange ([Stratton et al., 2014]). We prepared both phosphorylated and unphosphorylated forms of peptides spanning the CaM-binding element of CaMKII-α (see Materials and methods). The peptides were labeled with a fluorophore (Bodipy-FL maleimide) at the C-terminal end, and binding was monitored by changes in fluorescence polarization (Figure 3A). To a fixed volume of labeled peptide (2 nM), increasing concentrations of the hub was added, and the change in fluorescence polarization was monitored (Figure 3B). […]
as §1, with “filter.” for “filter. Error bars are calculated from the standard error of mean between replicates of experiments.”

[5] = molecular target: S. rosetta CaMKII holoenzyme, full length, wild type (Salpingoeca rosetta); test: native MS; full-length S. rosetta CaMKII at 12 μM; 1 M ammonium acetate pH 7.2
[6] = molecular target: S. rosetta CaMKII holoenzyme, full length, wild type (Salpingoeca rosetta); test: native MS; full-length S. rosetta CaMKII at 48 μM; 1 M ammonium acetate pH 7.2
[7] = molecular target: S. rosetta CaMKII holoenzyme, full length, wild type (Salpingoeca rosetta); test: SEC; analytical gel filtration, Superose 6 10/300, 25 mM Tris pH 8.0, 150 mM KCl, 10% glycerol, 1 mM TCEP or 2 mM DTT; injection at 700 nM subunits; tryptophan fluorescence
[8] = molecular target: S. rosetta CaMKII holoenzyme, full length, wild type (Salpingoeca rosetta); test: native MS; full-length S. rosetta CaMKII at 3 μM; 1 M ammonium acetate pH 7.2
[9] = molecular target: S. rosetta CaMKII hub domain (Salpingoeca rosetta); test: SEC-MALS; S. rosetta hub at ∼3.2 mg/ml (~200 μM) on Superdex 200 10/300; 25 mM Tris pH 8.0, 150 mM KCl, 1 mM TCEP, 10% glycerol; 25°C
[10] = molecular target: hub-△kinase (hub, linker and autoinhibitory segment of human CaMKII-α, without the kinase domain) (human); test: SEC; analytical gel filtration, Superose 6 10/300, 25 mM Tris pH 8.0, 150 mM KCl, 10% glycerol, 1 mM TCEP or 2 mM DTT; injection at 700 nM subunits; tryptophan fluorescence
[11] = molecular target: B3; test: fluorescence polarisation; competition: 2 nM BODIPY labelled peptide bound to 30 μM hub, unlabeled peptide 0-500 μM added; KD from a non-linear fit assuming one peptide site per subunit and equal KD of labelled and unlabeled peptide; details: both partners purified
[12] = molecular target: the molecule itself; test: native MS; human hub; nanoelectrospray Q-TOF, 1 M ammonium acetate pH 7.2; CID MS/MS at 30 V collision energy
[13] = molecular target: the molecule itself; test: native MS; F397A hub: 200 μM in 1 M ammonium acetate; 2 μM in 25 mM Tris, 1 mM TCEP, pH 8; 250 mM ammonium acetate, 25 mM Tris, 1 mM TCEP, pH 8; oligomer identity confirmed by CID
[14] = molecular target: the molecule itself; test: SEC; analytical gel filtration, Superose 6 10/300; elevated injection concentration of 3–5 μM; reinjection of the dodecamer/tetradecamer peak of the holoenzyme; pre-incubation with Mg2+-ATP for the holoenzyme
[15] = molecular target: the molecule itself; test: crystal structure; human CaMKII-α hub with uncleaved tag; 35% (v/v) MPD, 0.1 M HEPES pH 7.3

Molecule: CC[C@H](C)[C@H](NC(=O)[C@H](C)NC(=O)CNC(=O)[C@H](CCCCN)NC(=O)[C@H](CC(C)C)NC(=O)[C@H](CCCCN)NC(=O)[C@H](CCCNC(=N)N)NC(=O)[C@H](CCCNC(=N)N)NC(=O)[C@H](C)NC(=O)[C@H](CC(N)=O)NC(=O)[C@H](Cc1ccccc1)NC(=O)[C@H](CCCCN)NC(=O)[C@H](CCCCN)NC(=O)[C@@H](N)CC(C)C)C(=O)N[C@@H](CC(C)C)C(=O)N[C@H](C(=O)N[C@H](C(=O)N[C@@H](CCSC)C(=O)N[C@@H](CC(C)C)C(=O)N[C@@H](C)C(=O)N[C@@H](CS)C(=O)O)[C@@H](C)OP(=O)(O)O)[C@@H](C)O [peptide D]
- Kd ([1]; 2 nM labeled peptide bound to 30 μM hub, competed with unlabeled peptide 0-500 μM, 25 mM Tris pH 8.0, non-linear least squares fit, one peptide-binding site per subunit, labeled peptide A used for peptide B, read-out: KD from competition experiments): 52 µM

Molecule: LKEFNAERKLEGAILTTMLA [Peptide G, triple mutant of the residues 290-309 peptide, three positively charged residues replaced by Glu]
- Ability to compete the binding of the labeled peptide ([1]; hub bound to labeled peptide A, competition with unlabeled mutant peptides (Figure 3F)): fails to compete

Molecule: N. vectensis CaMKII-A hub domain (domain or fragment)
- stoichiometry N [2]: 14

Molecule: N. vectensis CaMKII-B hub domain (domain or fragment)
- stoichiometry N [3]: 14

Molecule: RRKLKGAILTTMLATRC [peptide A]
- Kd [4]: ~100 µM

Molecule: S. rosetta CaMKII holoenzyme, full length, wild type
- stoichiometry N [5]: 4 and 6
- stoichiometry N [6]: 4 and 6 and 8
- stoichiometry N [7]: 2
- stoichiometry N [8]: 2 and 4

Molecule: S. rosetta CaMKII hub domain (domain or fragment)
- stoichiometry N [9]: 4

Molecule: hub-△kinase (hub, linker and autoinhibitory segment of human CaMKII-α, without the kinase domain) (domain or fragment)
- percent of the sample in the dimer peak [10]: 35%
- percent of the sample in the dodecamer/tetradecamer peak [10]: 65%
- stoichiometry N [10]: 2

B1: Peptide D, unlabeled (human CaMKII-α 290-309 plus C-terminal cysteine, phosphorylated on Thr 306) (peptide)
peptide: LKKFNARRKLKGAILT[pT]MLAC
notes: human CaMKII-α, residues 290-309; added C-terminal cysteine; also called peptide phosphorylated on Thr 306; source: synthetic peptide, bought: Elim Biopharm, HPLC purified
- IC50 [11]: ~100 µM
- Kd [11]: ~50 µM

B2: Peptide C, unlabeled (human CaMKII-α 290-309 plus C-terminal cysteine, phosphorylated on Thr 305) (peptide)
peptide: LKKFNARRKLKGAIL[pT]TMLAC
notes: human CaMKII-α, residues 290-309; added C-terminal cysteine; also called peptide phosphorylated on Thr 305; source: synthetic peptide, bought: Elim Biopharm, HPLC purified
- IC50 [11]: ~100 µM
- Kd [11]: ~60 µM

Molecule: B3
- stoichiometry N [12]: 12 and 14

B4: human CaMKII-α hub domain F397A (domain or fragment, UniProt Q9UQM7 345-475, looked up)
chain: VRKQEIIKVTEQLIEAISNGDFESYTKMCDPGMTAFEPEALGNLVEGLDFHRAYFENLWSRNSKPVHTTILNPHIHLMGDESACIAYIRITQYLDAGGIPRTAQSEETRVWHRRDGKWQIVHFHRSGAPSV
notes: Ca2+/calmodulin-dependent protein kinase II alpha, human, hub domain; residues 345-475 are stated for the crystallization construct of the wild type; residue number according to PDB 1HKX; also called F397A mutant hub; mutant hub; source: E. coli BL21, purified; not shown: His6, N-terminal, cleaved
- stoichiometry N [13]: 14
- stoichiometry N [14]: 2

B5: Peptide B (human CaMKII-α 290-309, unphosphorylated, unlabeled) (peptide)
peptide: LKKFNARRKLKGAILTTMLA
notes: also called the unphosphorylated peptide; wild type peptide; source: synthetic peptide, gift of Leta Nutt (St. Jude Children's Research Hospital), HPLC purified
- IC50 [11]: ~100 µM
- Kd [11]: ~90 µM

B6: human CaMKII-α hub, crystallization construct with uncleaved expression tag (domain or fragment)
chain: GSSHHHHHHSSGLEVLFQGPHMVRKQEIIKVTEQLIEAISNGDFESYTKMCDPGMTAFEPEALGNLVEGLDFHRFYFENLWSRNSKPVHTTILNPHIHLMGDESACIAYIRITQYLDAGGIPRTAQSEETRVWHRRDGKWQIVHFHRSGAPSV
notes: uncleaved N-terminal expression tag: hexahistidine followed by a PreScission protease cleavage site; written as a part because it docks on the hub; Ca2+/calmodulin-dependent protein kinase II alpha, human, hub domain, residues 345-475; The 22-residue tag was left uncleaved for crystallization; also called dodecameric human CaMKII-α hub; source: E. coli BL21, purified (Ni-NTA, Q-FF, Superose 6, …)
- stoichiometry N [15]: 12
